Data from patent US20210054030.

Experiments:
[1] = tested on: TALE-(NP)3-VP64 (Xanthomonas (TALE scaffold)?); test: cell_activity; details: HEK293T
[2] = tested on: TALE-(CP)3-VP64 (Xanthomonas (TALE scaffold)?); test: cell_activity; details: HEK293T
[3] = tested on: TALE-(CV)3-VP64 (Xanthomonas (TALE scaffold)?); test: cell_activity; details: HEK293T
[4] = tested on: TALE-(FT)3-VP64 (Xanthomonas (TALE scaffold)?); test: cell_activity; details: HEK293T
[5] = tested on: TET1 TALE-VP64 (RG) (Xanthomonas (TALE scaffold)?); test: cell_activity; details: 5mC at CpG (cellular, high); HeLa
[6] = tested on: TALE-HD (MAPK6 target) (Xanthomonas (TALE scaffold)?); test: inhibition; details: MspI protection, 25 C
[7] = 6mA at bases 7-9 of the site, forward strand

Sequence: CTGGCCAAATACGTA (double strand) [6mA reporter]
- activity (fold EGFP induction) ([1]; 6mA at bases 7-9 of the site, forward strand, strongest of the 6mA-specific RVDs): > 5
- activity (fold EGFP induction) [2, 7]: > 5
- activity (fold EGFP induction) [3, 7]: > 5
- activity (fold EGFP induction) [4, 7]: > 5

Sequence: CTGGCCAAATACGTA (double strand) [A reporter]
- 6mA/A selectivity ratio [1]: > 5 6mA/A ratio
- 6mA/A selectivity ratio [2]: > 5 6mA/A ratio
- 6mA/A selectivity ratio [3]: > 5 6mA/A ratio
- 6mA/A selectivity ratio [4]: > 5 6mA/A ratio

Sequence: TAGGCGTCCTCCGCGAC (double strand) [TET1 promoter, HeLa (highly methylated)]
- activity (fold induction) [5]: 10

Sequence: TTCAGCTGGATCCCGGGAGGAGCGGATATAACCAGG (double strand) [MAPK6 probe, 5hmC]
- binding signal (fold higher Ki than for C) ([6]; 5hmC at second C of the MspI site CCGG (C14)): > 30

Sequence: TTCAGCTGGATCCCGGGAGGAGCGGATATAACCAGG (double strand) [MAPK6 probe, 5mC]
- binding signal (fold higher Ki than for C) ([6]; 5mC at second C of the MspI site CCGG (C14)): > 30
